± gives the uncertainty stated by the source.

The data set is described as follows: amyloid nucleation score (Sup35N fusion, yeast selection) (log enrichment); library NNK1; higher = more nucleation; inactive = no reads after selection. In a few lines:
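Peptides of 20 random codons fused to Sup35N were expressed in psi-negative yeast, induced 24 hours with 100 μM copper sulfate, then grown 7 days at 30°C on medium lacking adenine and uracil. Input and output plasmid inserts were Illumina-sequenced. Nucleation score is the DiMSum log enrichment of output over input reads, centred on the mode score of non-aggregating sequences, excluding sequences with under 100 input reads. Random libraries had three technical output replicates.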
Take GPIRDKSELAYMLPFEVMYT: the amyloid nucleation score is 0.565 ± 0.67.

For CSYDNVPDLFC, the amyloid nucleation score amounted to 0.582 ± 0.68.

ALEWHGQTYSFRIEI came in with an amyloid nucleation score of 0.537 ± 0.36.

DSRVLSDYLSSYLSLKYLLV had an amyloid nucleation score of -0.031 ± 0.62.

In turn, YRPLVTPALSLTLNRFKVDV yielded an amyloid nucleation score of 0.187 ± 0.35.

Take LGVKFVQDGTINKGHLKR: the amyloid nucleation score is -0.543 ± 0.63.

For SYQCGENYMFAYVNWSVGGN, the amyloid nucleation score came to 0.548 ± 0.84.

Consider MHCLGLAWALELVSLLC, for which the amyloid nucleation score is -0.374 ± 0.77.

Regarding FFTVSVYLHVRGVAYESAAA, the amyloid nucleation score came to 0.252 ± 0.32.

In the case of DTVYLLGGCCLVVRLNLFIG, the amyloid nucleation score came to 3.77 ± 0.15.

For the substance QVNDIGP, the amyloid nucleation score was -0.341 ± 0.22.

As for NQACAFYNRLRFGK, the amyloid nucleation score came out at 3.27 ± 0.14.

In the case of HFMAI, the amyloid nucleation score is -1.55 ± 0.8.

Substance CLQFSVEARRLLKLNVGALE yielded an amyloid nucleation score of 2.29 ± 0.13.

Take NSSSIQVANRARDV: the amyloid nucleation score entry was “inactive”.

The substance VINCITRLDVQYRKHTPFAN showed an amyloid nucleation score of -0.382 ± 0.3.

In turn, CRSVCGRIS returned an amyloid nucleation score of 0.177 ± 0.77.

On to WYIMGFTNDRVLRNLMCYTC, for which the amyloid nucleation score was 0.21 ± 0.35.

PVCVIRRGMAFSAFGWVPLE: the amyloid nucleation score came to 0.188 ± 0.7.

DKCCKLSRD gave an amyloid nucleation score of 0.972 ± 0.58.

With SCYVLVMYCYDMSFCDTLCE, the amyloid nucleation score was 0.024 ± 0.47.

WISETMFSVSAMSPVTSDAF showed an amyloid nucleation score of -0.713 ± 0.4.

Turning to GLLFVKGTVDRQAWSGFEAH, the amyloid nucleation score is -0.796 ± 1.2.

DRRKAPGLMNAMD came in with an amyloid nucleation score of 0.737 ± 0.97.

The substance INALYRFGWKARFSMSC showed an amyloid nucleation score of 0.282 ± 0.45.

The substance RGNRHTSGNVTL yielded an amyloid nucleation score of 0.045 ± 0.35.

Take RSMDRTGSIAGRYCVKKMSS: the amyloid nucleation score worked out at 0.423 ± 0.3.

The substance TNIFMSFKFLISSLRCFPER had an amyloid nucleation score of 4.68 ± 0.12.

The substance GFGAQPWRARSMFYK displayed an amyloid nucleation score of 0.566 ± 0.67.

For KSEDTSRFYTLMMSMYTQRF, the amyloid nucleation score is 1.76 ± 0.14.

The substance ITREVSL showed an amyloid nucleation score of 1.36 ± 0.61.

As for STRMVYR, the amyloid nucleation score was -0.261 ± 0.95.

The substance YNVQVLQVGGRLCRNKCSSC registered an amyloid nucleation score of 7.825 ± 0.061.

SAFVDWSAGSSNDFFFF returned an amyloid nucleation score of -0.577 ± 0.94.

Consider SPAFPP, for which the amyloid nucleation score is 0.798 ± 0.79.

GNCGET returned an amyloid nucleation score of 0.311 ± 0.41.

In turn, CSCYAM gave an amyloid nucleation score of 3.25 ± 0.19.

AFHLTSSSLFLFSWNSWVAV had an amyloid nucleation score of 5.3 ± 0.082.

Substance AGNFVVPMDAE displayed an amyloid nucleation score of 1.62 ± 0.41.

As for INVIYNICFQVSW, the amyloid nucleation score was found to be 8.413 ± 0.052.

For CRYYRCSQKLDKLVTFTKKS, the amyloid nucleation score was found to be 0.722 ± 0.49.

With IRFHCLHLVAVLTKTRVFEA, the amyloid nucleation score was found to be 0.064 ± 0.95.

As for RTGITNTKPTQWSYNQSLSS, the amyloid nucleation score was -0.291 ± 0.52.

For the substance HCLAGNLDLAMVRVRSPTCL, the amyloid nucleation score turned out to be 0.032 ± 0.59.

TRWLILWNLAGPTGCYFRIL returned an amyloid nucleation score of 0.063 ± 0.63.

Consider FCVRWILPLDISMGDRHSSE, for which the amyloid nucleation score is 0.592 ± 0.49.

In turn, SSSYDY displayed an amyloid nucleation score of -0.545 ± 0.28.

Regarding FDGFRGNG, the amyloid nucleation score worked out at 0.487 ± 0.49.

As to SNCFGSSIGNYFRYMFVAYW, the amyloid nucleation score came to 1.86 ± 0.47.

Consider MHRGDVMRSSWNHDGVGTVR, for which the amyloid nucleation score was 0.048 ± 1.2.

Turning to KFYYSLDVSSRCNFVLLEVE, the amyloid nucleation score worked out at 0.669 ± 0.65.

In turn, SLWAYNPV returned an amyloid nucleation score of 2.04 ± 0.38.

The substance LLCWRYFSCSYFLECVGSTS showed an amyloid nucleation score of -1.14 ± 0.86.

TVNVFFLQACSRSC gave an amyloid nucleation score of 7.73 ± 0.06.

In turn, RVLSSTNHSAYHWIEKGSTF returned an amyloid nucleation score of 1.01 ± 0.31.

In the case of QEYRDMILKPFHRWFTMFK, the amyloid nucleation score was found to be 0.941 ± 0.44.

Consider IICKVCLCVAPM, for which the amyloid nucleation score came to 2.81 ± 0.19.

The substance FSYYVKGDGKERVGWMASIM displayed an amyloid nucleation score of -0.94 ± 0.94.

For the substance YAQPIFKLCRTG, the amyloid nucleation score is -0.921 ± 2.4.
